Data from the supplement of paper PMC10567573.

B1: HESX1 (parent)
chain: QKKDCVPLMKPHRPWADTCSSSGK
B2: CPN1 (parent)
chain: RGVRRTASTPTPDDKLFQKLAKVY

Variants of: B1
Assay: protein stability index of a GFP-peptide fusion (GPS, HEK-293T) (PSI 1-6); higher = more stable
Conditions: c terminus: a fixed tail appended
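Further: lentivirally expressed fusions sorted by FACS into six bins by GFP to DsRed ratio, PSI derived from sequencing read proportions per bin multiplied by bin number.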

Protein stability index: each site, then its substitutions
W15: L 4.66; K 4.92; P 4.35; S 4.8; H 4.64; A 4.62; D 4.81; G 4.96; Q 4.79; Y 4.39; C 4.02; F 3.47; E 5.37; N 4.79; I 4.26; T 5.26; M 4.57
K3: A 3.52; I 3.01; H 3.66; D 3.81; S 3.69; L 3.42; G 3.2; W 4.36; P 3.62; N 3.67; V 3.47; C 3.27; M 3.53; Y 3.06; R 2.92; T 3.13; F 4.05; Q 3.06
P7: N 3.07; R 2.46; Q 3.34; L 2.68; F 2.07; C 2.74; T 2.7; W 1.76; A 2.79; I 2.44; M 3.17; S 3.38; D 3.93; K 2.8; H 2.92; V 2.56; Y 2.78
V6: N 3.98; Y 3.01; S 3.4; P 3.31; E 4.38; T 3.92; M 3.05; L 2.92; A 4.1; R 2.88; W 3.08; C 3.1; K 2.57; Q 2.98; H 3.17; I 3.03; F 3.28; G 3.46; D 3.11
C5: Q 2.49; R 4.16; A 3.08; W 3.34; N 3.06; M 3.19; P 3.17; L 3.59; H 3.83; G 2.62; E 4.15; Y 3.38; V 3.78; T 3.2; S 3.4; F 3.38; K 2.81; I 2.51; D 3.57
M9: H 3.89; A 3.69; Y 3.2; I 3.23; W 3; S 2.93; D 4.08; R 3.13; C 3.76; E 4.04; F 2.85; T 3.77; N 3.58; K 3.08; L 3.41; G 4.27; P 3.51
H12: A 4; F 3.25; C 3.42; Q 3.94; S 4.05; M 3.18; L 3.91; W 2.29; I 3.07; N 3.77; D 4.49; G 3.98; T 3.08; P 4.01; Y 3.29; E 4.44; R 4.82; K 3.73
A16: K 3.96; F 3.44; N 4.2; T 3.76; S 3.72; R 3.45; I 3.34; D 4.66; H 3.98; Q 4; C 3.72; P 3.96; L 3.75; W 3.39; V 2.46; M 4.02; Y 3.49; E 3.9; G 3.57
K2: W 2.88; C 4.18; H 3.4; I 3.17; Y 2.51; P 3.89; T 3.67; N 3.33; S 3.06; D 4.3; L 3.3; A 3.27; F 3.46; M 3.24; E 4.16; G 3.06; V 3.12
K10: C 3.88; G 3.47; S 3.74; Q 4.19; I 3.7; D 4.83; F 3.21; W 2.52; A 3.18; V 3.94; N 4.25; Y 3.45; H 3.79; T 3.35; M 2.92; R 3.48; L 3.58
T18: F 2.35; I 1.57; A 3.41; Q 3.36; Y 2.25; E 4.29; R 2.69; P 4.02; W 2.94; V 1.9; D 3.96; H 2.13; L 2.24; N 3.75; G 3.69; S 3.28; C 3.15; M 2.44; K 4.01
Q1: K 3.06; F 3.17; E 3.98; M 3.03; N 3.22; R 3.74; G 4.01; S 3.49; C 2.94; L 2.01; P 3.66; W 2.69; T 3.4; A 2.76; H 3.86; I 3.46; D 3.95; Y 2.45
C19: F 2.66; H 3.77; M 4.19; N 4.83; L 3.13; I 2.45; K 4.47; E 4.32; D 3.9; A 4.07
P14: W 2.96; Y 2.98; G 3.96; H 3.95; D 3.21; F 3.1; A 2.52; E 4.12; S 3.1; N 2.72; L 3.06; V 2.23; K 2.81; C 2.36; Q 3.88; M 2.84; I 3.26
L8: M 3; S 3.86; D 3.93; Q 4.1; G 3.18; N 3.19; F 3.14; I 2.82; P 3.49; Y 3.78; K 3.73; T 2.82; V 3.28; R 2.59; E 3.58; H 2.31; W 3.47; C 2.7; A 3.29
D17: M 3.36; F 3.07; T 3.06; G 3.45; R 3.46; S 3.74; N 3.22; V 2.91; Q 3.89; H 3.71; I 2.57; K 3.91; W 2.78; Y 3.17; C 2.81; P 3.6; A 3.48; E 3.53
D4: L 2.38; A 2.87; T 2.49; Q 3.54; C 2.38; I 3.25; M 2.12; W 2.39; H 3.08; P 2.86; R 2.43; G 3.05; S 2.92; N 3.24; Y 2.72; F 2.61; K 2.89; V 2.17
R13: W 3.4; N 4.15; K 3.5; P 3.25; V 3.11; F 3.75; M 3.06; I 3.66; Y 3.64; D 4.11; H 3.6; E 4.97; Q 4.18; L 3.4; G 4.21; C 3.26; T 3.33
P11: I 3.42; T 4.68; H 3.51; Q 2.74; D 3.96; G 3.87; W 3.16; M 3.83; R 3.46; F 3.03; A 3.29; E 3.1; N 3.48; Y 2.55; L 2.85; S 3.64; K 3.42

Variants of: B2
Assay: as above
Conditions: c terminus: a fixed tail appended

Protein stability index: each site, then its substitutions
Y24: T 3.64; W 1.98; V 2.7
